According to article PMC2174947, “Transcriptional regulation of human eosinophil RNases by an evolutionary- conserved sequence motif in primate genome”:

Biological target: T1, GST-MAZ (UniProt P56270 1-477)
T1 sequence: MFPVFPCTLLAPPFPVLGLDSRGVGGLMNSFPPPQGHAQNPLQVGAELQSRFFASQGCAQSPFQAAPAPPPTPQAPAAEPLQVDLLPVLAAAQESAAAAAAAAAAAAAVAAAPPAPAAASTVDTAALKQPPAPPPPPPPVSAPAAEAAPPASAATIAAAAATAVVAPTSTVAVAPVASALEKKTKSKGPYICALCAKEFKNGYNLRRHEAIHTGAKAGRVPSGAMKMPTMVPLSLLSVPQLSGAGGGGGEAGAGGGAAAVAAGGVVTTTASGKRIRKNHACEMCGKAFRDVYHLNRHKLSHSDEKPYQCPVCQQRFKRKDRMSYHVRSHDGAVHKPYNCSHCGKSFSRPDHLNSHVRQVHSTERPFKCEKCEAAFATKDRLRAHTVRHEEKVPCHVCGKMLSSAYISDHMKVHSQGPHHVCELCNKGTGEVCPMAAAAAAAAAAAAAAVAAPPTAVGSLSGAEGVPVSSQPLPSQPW
Assay: EMSA; EMSA: 10 mM Tris-HCl pH 7.5, 50 mM NaCl, 5 mM MgCl2, 1 mM EDTA, 10% glycerol, 1 ug poly(dI-dC), 30 C 30 min; DAPA: 20 mM HEPES pH 7.6, 10 mM (NH4)2SO4, 1 mM EDTA, 1 mM DTT, 1% Tween 20, 100 mM KCl, 4 C
Details: protein: recombinant; label: 32P 5' end; blunt

B1: wt 34-nt EMSA probe (dsDNA)
DNA 1: GCCAAGAGCCAGACCCTCCCTCTGGGCTCTGCTGGCCCA
DNA 2: TGGGCCAGCAGAGCCCAGAGGGAGGGTCTGGCTCTTGGC
binding result: binds
